Results on 18 molecules are retold here after patent publication US10618964B2, “Nanobody against IL-6R” (Ablynx N.V., dated 2020).

In assay [1] the target is T1, native soluble IL-6R in human plasma (human, UniProt P08887). The experiment in a line: ELISA 3, periplasmic extract; competitor BN-12; human plasma. On the technique in general: ELISA stands for enzyme-linked immunosorbent assay.
Assay [2] has as its target T2, soluble IL-6R in cynomolgous plasma (cynomolgus monkey, UniProt A0A2K5WN54). Kind of assay: ELISA 2, periplasmic extract; competitor IL-6; cyno plasma.
Assay [3] deals with T1, native soluble IL-6R in human plasma. The experiment in a line: ELISA 1, periplasmic extract; competitor IL-6; human plasma.
Assay [4] has the same target. Kind of assay: plasma potency ELISA, purified Nanobody; competitor IL-6; human plasma. As to the method:
(§1) In this ELISA, plasma was used as a source of native soluble IL-6R. By this assay, we aimed to confirm the alphascreen results and to get a view on the cross-reactivity of the clones towards cynomolgous IL-6R. Human plasma (ELISA 1 and ELISA 3) or cynomolgous plasma (ELISA 2) were pre-incubated with a dilution of the periplasmic extract of the clones together with human IL-6 (50 ng/mL). Subsequently, plasma soluble IL-6R was captured on a B-N12 coated plate and bound IL-6 was detected using anti-IL-6 antibody BAF206 and streptavidin-HRP (ELISA 1 and ELISA 2). The ELISA signal dropped when the Nanobody clone could compete with IL-6 for binding to soluble IL-6R. ELISA 3 was a parallel ELISA in which the detection antibody was replaced by anti-IL-6R antibody BAF227 to exclude false positive competitors, which actually compete with B-N12 (e.g. family 2). Depicted in Table C-5 is the ratio of the OD450 value of the test sample versus the blank OD450 (mock sample). Clones were ordered based on ELISA 1 data.
(§2) A potency ELISA was done with the purified Nanobodies as described in Example 9. Here, different dilutions of each purified Nanobody were incubated with human (ELISA1) and cynomolgous plasma (ELISA2). IC50 values are depicted in Table C-9.

In assay [5] the target is T2, soluble IL-6R in cynomolgous plasma. The experiment in a line: plasma potency ELISA, purified Nanobody; competitor IL-6; cyno plasma. As to the method:
as §1, §2

Assay [6] has as its target IL-6R on TF-1 cells (Homo sapiens (Human), UniProt P08887). Kind of assay: cell-based or functional assay.

B1: IL6RPMP105C2 (VHH)
VHH: EVQLVESGGGLVQAGGSLRLSCAASGSIFRINAMGWYRQAPGEQRELVAAAISGGSTNYADFVKGRFTISRDNAKNTVYLQMNSLKPEDTAVYYCNALVVSHNYSDYVPFPDDYWGQGTQVTVSS
Regarding B1, the OD450 ratio sample/blank in assay [1] turned out to be 0.996; in assay [2] it was 1.01; in assay [3] it was 0.577.

B2: IL6RPMP101G2 (VHH)
VHH: EVQLVESGGGLVQAGGSLRLSCAASGSIFRINAMGWYRQAPGKQRELVAAAISGGSTNYADFVKGRFTISRDNAKNTVYLQMNSLKPEDTAVYYCNALVVSHNYSDYVPFPDDYWGQGTQVTVSS
B2: the figures for the OD450 ratio sample/blank in assay [1], in assay [2] and in assay [3] were 0.975, 1.04 and 0.597, respectively.

B3: IL6RPMP106F7 (VHH)
VHH: EVQLVESEGGLVQAGGSLRLSCAASGSIFRINAMGWYRQAPGKQRELVAAAISGGSTNYADFVKGRFTISRDNAKNTVYLQMNSLKPEDTAVYYCNALVVSHNYSDYVPFPDDYWGQGTQVTVSS
As to B3, the values for the OD450 ratio sample/blank in assay [1], in assay [2] and in assay [3] were 1, 1 and 0.672, respectively.

B4: IL6RPMP120G6 (VHH)
VHH: EVQLVESGGDLVQTGGSLRLSCAASGITVSDRAMGWYRQAPGKQREMVAGVSRGGMTSYADSVKGRLTISRDNAKNSVYLQMNSLNPEDTAVYYCSAYYRYGSSVPQYWGQGTQVTVSS
As usually defined, the IC50 is the concentration that inhibits the measured activity by half. As for B4, the IC50 in assay [4] was 1.12 nM; in assay [5], 0.66 nM. The values for the OD450 ratio sample/blank in assay [1], in assay [2] and in assay [3] were 0.993, 0.0289 and 0.236, respectively. For the same molecule, the “IC50, IL-6-dependent proliferation of TF-1 cells (3H-thymidine)” value (“IC50, IL-6-dependent proliferation” below) in assay [6] amounted to 10.2 nM.

B5: IL6RPMP107A1 (VHH)
VHH: EVQLVESGGGLVQAGGSLNLSCNASGDIGSINAMGWYRQAPGQQREWVAVITDTDSTIYPDSVKGRFAISRDGAKNTVHLRMSSLKPEDTAVYYCNAYQAGWGDYWGQGTQVTVSS
With B5, the IC50 in assay [4] was 0.38 nM; in assay [5], 47.8 nM. Moreover, the OD450 ratio sample/blank came to 0.967 in assay [1], 0.292 in assay [2] and 0.215 in assay [3]. The “IC50, IL-6-dependent proliferation” value in assay [6] was 4.05 nM.

B6: IL6RPMP100G11 (VHH)
VHH: EVQLVESGGGLVQAGGSLRLSCAASGRGFSPYTMGWFRQAPGKERVFVAGISWSTGIAHYTDSVKGRFTISRDNAKNTGSLQMNSLKPEDTAVYYCAVVQTTKGNYDYWGQGTQVTVSS
For the molecule B6, the OD450 ratio sample/blank in assay [1] turned out to be 0.997; in assay [2], 0.202; in assay [3], 1.71. In addition, the “IC50, IL-6-dependent proliferation” value in assay [6] was 116 nM.

B7: IL6RPMP120C1 (VHH)
VHH: EVQLVESGGGLVQAGGSLSLSCATSGRTISDDTMAWFRQAPGKEREFVATITFSGARTHYSDSVRDRFTISRDNAKNTVYLQMNSLKSEDTAVYYCAASTKYYSSTYNYIHPAFYDIWGQGTQVTVSS
With B7, the OD450 ratio sample/blank in assay [1] came out at 1.02; in assay [2] it was 0.187; in assay [3], 0.567.

B8: IL6RPMP120A1 (VHH)
VHH: EVQLVESGGGLVQAGGSLSLSCATSGRTISDDTMAWFRQAPGKEREFVATITFSGARTHYSDSVRDRFTISRDNAKNTVYLQMNSLKSEDTAVYYCAASTKYYSSTYNYIHPAFYDIWGQGTQVTVSS
In the case of B8, the OD450 ratio sample/blank stood at 1.01 in assay [1], 0.198 in assay [2] and 0.598 in assay [3].

B9: IL6RPMP120D2 (VHH)
VHH: EVQLVESGGGLVQAGGSLSLSCATSGRTISDDTMAWFRQAPGKEREFVATITFSGARTHYSDSVRDRFTISRDNAKNTVYLQMNSLKSEDTAVYYCAASTKYYSSTYNYIHPAFYDIWGQGTQVTVSS
In the case of B9, the OD450 ratio sample/blank in assay [1] stood at 0.993; in assay [2], 0.158; in assay [3] it was 0.659.

B10: IL6RPMP120B2 (VHH)
VHH: EVQLVESGGGLVQAGGSLSLSCATSGRTISDDTMAWFRQAPGKEREFVATITFSGARTHYSDSVRDRFTISRDNAKNTVYLQMNSLKSEDTAVYYCAASTKYYSSTYNYIHPAFYDIWGQGTQVTVSS
Take B10: the OD450 ratio sample/blank worked out at 1.02 in assay [1], 0.204 in assay [2] and 0.645 in assay [3].

B11: IL6RPMP107E4 (VHH)
VHH: EVQLVESGGGLVQAGGSLRLSCAASGSIDRINAMGWYRQAPGKQRDFLAVITDGDKTLYADSVKGRFTISNDNAKNTVYLQMNSLKPEDTAVYYCNAYQAGWGDYWGQGTQVTVSS
Consider B11, for which the OD450 ratio sample/blank came to 1.02 in assay [1], 1.19 in assay [2] and 0.592 in assay [3].

B12: Reference IgG (antibody, V domains shown)
VH: QVQLQESGPGLVRPSQTLSLTCTVSGYSITSDHAWSWVRQPPGRGLEWIGYISYSGITTYNPSLKSRVTMLRDTSKNQFSLRLSSVTAADTAVYYCARSLARTTAMDYWGQGSLVTVSS
VL: DIQMTQSPSSLSASVGDRVTITCRASQDISSYLNWYQQKPGKAPKLLIYYTSRLHSGVPSRFSGSGSGTDFTFTISSLQPEDIATYYCQQGNTLPYTFGQGTKVEIKR
With B12, the “IC50, IL-6-dependent proliferation” value in assay [6] amounted to 0.53 nM.

B13: IL6RPMP108E1 (VHH)
VHH: EVQLVESGGGLVQAGGSLRLSCAASGFTFDDYDIGWFRQAPGKEREGVSGISSSDGNTYYADSVKGRFTISSDNAKNTVYLQMNSLKPEDTAVYYCAAEPPDSSWYLDGSPEFFKYWGQGTQVTVSS
Consider B13, for which the values for the IC50 in assay [4] and in assay [5] were 0.15 nM and 29.1 nM, respectively. In addition, the OD450 ratio sample/blank in assay [1] turned out to be 0.954; in assay [2] it was 0.359; in assay [3], 0.0894. The “IC50, IL-6-dependent proliferation” value in assay [6] was 0.149 nM.

B14: IL6RPMP107A9 (VHH)
VHH: EVQLVESGGGLVQAGGSLRLSCAASGGIFSDMFMGWFRQAPGKSRESVARISPSGNTFYQDSVRGRFTISTDNAKNTVYLQMNNLKPEDTAVYYCAANVGVTGSYEYWGQGTQVTVSS
For the molecule B14, the values for the IC50 in assay [4] and in assay [5] were 3.5 nM and 4.7 nM, respectively. The results for the OD450 ratio sample/blank in assay [1], in assay [2] and in assay [3] were 0.992, 0.0867 and 1.08, respectively. Besides, the “IC50, IL-6-dependent proliferation” value in assay [6] was 349 nM.

B15: IL6RPMP104B8 (VHH)
VHH: EVQLVESGGGLVQAGGSLRLSCAASGFAFDDYAIGWFRQAPGKEREGVSSISSSNGNTYYADSVRGRFTISSDNAKNTVYLQMNSLKPEDTGVYYCAAIWGIFFNEKMPVGAYDYWGQGTQVTVSS
As to B15, the results for the IC50 in assay [4] and in assay [5] were 7.8 nM and 252 nM, respectively. The OD450 ratio sample/blank in assay [1] was 1.05; in assay [2], 0.735; in assay [3] it was 1.46. Besides, the “IC50, IL-6-dependent proliferation” value in assay [6] is 245 nM.

B16: IL6RPMP101C3 (VHH)
VHH: EVQLVESGGGLVRAGGSLRLSCAASGFAFDDYAIGWFRQAPGKEREGVSSISSSNGNTYYADSVRGRFTISSDNAKNTVYLQMNSLKPEDTGVYYCAAIWGIFFNEKMPVGAYDYWGQGTQVTVSS
In the case of B16, the OD450 ratio sample/blank is 0.975 in assay [1], 0.801 in assay [2] and 0.58 in assay [3].

B17: IL6RPMP101F2 (VHH)
VHH: EVQLVESGGGLVQAGGSLRLSCAASGFAFDDYAIGWFRQAPGKEREGVSSISSSNGNTYYADSVRGRFTISSDNAKNTVYLQMNSLKPEDTGVYYCAAIWGIFFNEKMPVGAYDYWGQGTQVTVSS
As to B17, the OD450 ratio sample/blank in assay [1] turned out to be 0.972; in assay [2], 0.811; in assay [3], 0.569.

B18: IL6RPMP105H10 (VHH)
VHH: EVQMVESGGGLVQAGGSLRLSCAASGFAFDDYAIGWFRQAPGKEREGVSSISSSNGNTYYADSVRGRFTISSDNAKNTVYLQMNSLKPEDAGVYYCAAIWGIFFNEKMPVGAYDYWGQGTQVTVSS
B18: the results for the OD450 ratio sample/blank in assay [1], in assay [2] and in assay [3] were 1.02, 0.679 and 0.627, respectively.
